Source: US12338268B2, “Compositions and methods for treating protein aggregation-associated diseases” (The Board of Trustees of the Leland Stanford Junior …, priority 2019, dated 2025)

Biological target: T1, AtxQ78 (Homo sapiens, UniProt P54252, INS305QQQQQQQQQQQQQQQQQQQQQQQQQQQQQQQQQQQQQQQQQQQQQQQQQQQQQQQQQQQQQQQQ)
T1 construct: full-length Ataxin-3 harboring a stretch of 78 glutamines (AtxQ78); made in house
Test: Chemical crosslinking (BS3) and mass spectrometry of NAC-AtxQ78 complexes
Assay type: binding
Settings: NAC and AtxQ78 1:1, BS3 crosslinker, LC-MS
Procedure: For crosslinking AtxQ78 was buffer exchanged into 10 mM sodium phosphate (pH 7.2) and added to NAC at a 1:1 ratio (20 μM NAC+20 μM AtxQ78). A 1:1 mixture of BS^3-d^0 and BS^3-d^4 was added to the proteins at 20× and 50× molar excess and the reaction allowed to proceed at room temperature for 1 hour before quenching with the addition of 50 mM Tris-Cl (pH 7.5). Samples were diluted with 2× loading buffer and separated on Tris-tricine gels followed by staining with InstantBlue (Expedeon).
Gel pieces containing the crosslinked complexes were washed with 25 mM ammonium bicarbonate (pH 7.8) for 1 h with shaking. The solution was removed and the pieces destained three times with 25 mM ammonium bicarbonate in 60% acetonitrile. Gel pieces were dehydrated with 100% acetonitrile for 10 min and left to air-dry in a laminar flowhood for 1 h. Rehydration of the gel pieces was achieved by adding 0.1 mg/ml trypsin solution and incubating the samples on ice for 30 min. Excess trypsin was removed and the samples were incubated at 37° C. and 1000 rpm overnight. Peptides were extracted from the gel using 3 washes with 60% acetonitrile/5% formic acid. The extracts were pooled and concentrated using a SpeedVac before being analyzed using a nanoACQUITY LC-system coupled to a Synapt HDMS G2Si mass spectrometer. […]

T1 sequence (P54252 with tags, fused parts or gaps with the stated changes): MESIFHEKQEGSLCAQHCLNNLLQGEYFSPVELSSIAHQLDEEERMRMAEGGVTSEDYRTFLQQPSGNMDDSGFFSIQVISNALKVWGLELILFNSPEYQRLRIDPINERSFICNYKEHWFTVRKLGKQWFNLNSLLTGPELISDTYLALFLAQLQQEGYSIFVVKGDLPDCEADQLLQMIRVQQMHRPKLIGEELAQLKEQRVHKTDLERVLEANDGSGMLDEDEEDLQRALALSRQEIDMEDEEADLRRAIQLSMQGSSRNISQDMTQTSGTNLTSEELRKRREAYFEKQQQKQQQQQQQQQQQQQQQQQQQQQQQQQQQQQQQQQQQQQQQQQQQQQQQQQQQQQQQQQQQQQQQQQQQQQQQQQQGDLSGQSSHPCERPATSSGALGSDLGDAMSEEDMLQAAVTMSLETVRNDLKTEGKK

B1: NAC: nascent polypeptide-associated complex, heterodimer of αNAC and βNAC; species not given at the place (C. elegans icd-1/icd-2 when overexpressed in worms) (protein)
chain 1: MTGSTETRQKEVKEPQVDVSDDSDNEAVEQELTEEQRRVAEAAGLGDHIDKQAKQSRSEKKARKLFSKLGLKQVTGVSRVCIRKSKNILFVINKPDVFKSPGSDTYIIFGEAKIEDLTQHAQMSAIENLKPTREAPQLKTVEEDENEDVEEDSTGIEEKDIELVISQANTTRNKAIRALKEADNDIVNAIMSLTM
chain 2: MMDSKAIAERIKKLQAQQEHVRIGGKGTPRRKKKVIHKTAAADDKKLQSNLKKLSVTNIPGIEEVNMIKDDGTVIHFNNPKVQTSVPANTFSVTGSADNKQITEMLPGILNQLGPESLTHLKKLANNVTKLGPDGKGEDEDVPELVGDFDAASKNETKADEQ
In the case of B1, the “NAC regions crosslinked to AtxQ78” value is reported as “predominantly crosslinked to AtxQ78 via the N-terminal regions of αNAC and βNAC”.
